Source: the Human Domainome abundance scans (Beltran et al. 2025)
± gives the uncertainty stated by the source.

B1: Max-interacting protein 1, residues 70 to 120; numbered along this chain, P50539 (parent)
chain: STHNELEKNRRAHLRLCLERLKVLIPLGPDCTRHTTLGLLNKAKAHIKKLE

Variants of: B1
Assay: abundance fitness (aPCA) (normalised: wild type 0, dead -1); higher = more abundant; growth selection in yeast, the domain comes from the species named
Settings: Homo sapiens

Abundance fitness of substitutions, site by site:
L27: V -0.009 ± 0.087; E -0.423 ± 0.1; T 0.074 ± 0.11; Q -0.149 ± 0.14; Y -0.39 ± 0.15; C -0.573 ± 0.17; H -0.146 ± 0.22; G 0.18 ± 0.082; P 0.359 ± 0.11; A -0.006 ± 0.096; M -0.031 ± 0.12; I -0.004 ± 0.13; D -0.512 ± 0.22; R 0.308 ± 0.084; S 0.166 ± 0.1
H34: P -0.318 ± 0.15; Q -0.028 ± 0.11; S 0.047 ± 0.086; C -0.063 ± 0.099; I -0.225 ± 0.14; D -0.457 ± 0.12; N 0.052 ± 0.15; W 0.017 ± 0.091; Y -0.406 ± 0.15; V 0.019 ± 0.094; T -0.103 ± 0.11; R 0.264 ± 0.074; G 0.114 ± 0.079; L 0.081 ± 0.084; K 0.39 ± 0.12
T35: F 0.198 ± 0.13; Q -0.176 ± 0.12; A 0.213 ± 0.082; V 0.057 ± 0.086; K 0.218 ± 0.14; E -0.508 ± 0.11; R 0.225 ± 0.075; Y 0.279 ± 0.15; W 0.189 ± 0.097; G -0.031 ± 0.075; D -0.377 ± 0.14; H -0.023 ± 0.14; L -0.017 ± 0.092; P -0.103 ± 0.1; C 0.019 ± 0.098; S 0.025 ± 0.089
E19: P -0.358 ± 0.15; S -0.083 ± 0.11; R -0.513 ± 0.096; A -0.23 ± 0.088; D -0.252 ± 0.2; K -0.467 ± 0.2; Q -0.185 ± 0.14; V -0.999 ± 0.11; L -0.791 ± 0.11; Y -0.79 ± 0.21; H -0.236 ± 0.17; T -0.532 ± 0.11; I -0.43 ± 0.24; W -0.782 ± 0.13; C -0.618 ± 0.13; N 0.202 ± 0.16; M -0.678 ± 0.14; F -0.623 ± 0.19
R33: L -0.438 ± 0.086; E -0.667 ± 0.11; W -0.075 ± 0.1; D -0.644 ± 0.14; M -0.394 ± 0.11; P -0.225 ± 0.13; F -0.129 ± 0.12; Y -0.107 ± 0.14; N -0.372 ± 0.15; S -0.44 ± 0.097; K -0.117 ± 0.13; C -0.365 ± 0.11; I -0.691 ± 0.15; Q -0.116 ± 0.12; V -0.293 ± 0.079; T -0.576 ± 0.12; G -0.257 ± 0.072; H -0.247 ± 0.18; A -0.338 ± 0.096
K22: W -1.08 ± 0.15; F -0.759 ± 0.15; A -0.903 ± 0.15; N -0.572 ± 0.21; Y -0.884 ± 0.36; R -0.121 ± 0.095; G -0.611 ± 0.11; L -0.639 ± 0.097; Q -1.02 ± 0.26; V -0.926 ± 0.15; D -0.83 ± 0.31; E -0.885 ± 0.15; C -0.871 ± 0.18; M -0.753 ± 0.13; T -0.835 ± 0.14; S -0.536 ± 0.11; I -1.21 ± 0.22; H -0.651 ± 0.24; P -0.757 ± 0.15
T32: A 0.163 ± 0.086; W 0.033 ± 0.095; V 0.341 ± 0.079; Y -0.174 ± 0.16; M 0.546 ± 0.12; N -0.389 ± 0.17; D -0.387 ± 0.11; E -0.354 ± 0.096; H -0.168 ± 0.12; K -0.239 ± 0.12; L 0.374 ± 0.089; G 0.012 ± 0.074; R -0.137 ± 0.075; S -0.109 ± 0.088; I 0.139 ± 0.12; P -0.303 ± 0.15; Q -0.112 ± 0.16; C 0.268 ± 0.12
T36: A 0.138 ± 0.097; E -0.487 ± 0.13; L -0.106 ± 0.1; F 0.155 ± 0.13; D -0.705 ± 0.13; G 0.134 ± 0.076; P -0.107 ± 0.12; R -0.19 ± 0.09; Q -0.199 ± 0.13; N -0.183 ± 0.16; K -0.091 ± 0.15; S -0.132 ± 0.094; C 0.085 ± 0.13; I -0.028 ± 0.12; H -0.176 ± 0.15; V 0.308 ± 0.084
D30: F 0.036 ± 0.077; E -0.134 ± 0.12; M 0.118 ± 0.098; T 0.128 ± 0.077; V 0.223 ± 0.079; G 0.178 ± 0.087; L 0.183 ± 0.071; S 0.279 ± 0.07; W 0.034 ± 0.11; Q 0.147 ± 0.089; N 0.229 ± 0.085; P 0.128 ± 0.076; H 0.031 ± 0.078; R 0.178 ± 0.079; K 0.213 ± 0.11; Y -0.007 ± 0.077; A 0.095 ± 0.077; C -0.07 ± 0.084; I 0.151 ± 0.084
R20: M -1 ± 0.16; W -0.912 ± 0.15; Q -0.405 ± 0.18; G -0.817 ± 0.1; D -1.17 ± 0.28; N -0.335 ± 0.28; H -0.726 ± 0.27; S -0.576 ± 0.1; Y -0.884 ± 0.17; P -0.753 ± 0.17; E -0.929 ± 0.16; T -0.377 ± 0.15; F -0.971 ± 0.18; A -0.677 ± 0.11; V -0.797 ± 0.13; I -1.11 ± 0.23
I25: H -0.744 ± 0.23; F -0.141 ± 0.13; P -0.334 ± 0.13; Y -0.309 ± 0.16; M -0.228 ± 0.13; E -0.384 ± 0.19; G -0.26 ± 0.11; V -0.062 ± 0.088; Q -0.561 ± 0.17; W 0.319 ± 0.097; K -0.995 ± 0.26; L -0.172 ± 0.09; R -0.521 ± 0.098; A -0.584 ± 0.11; C 0.045 ± 0.14; T -0.562 ± 0.13; D -0.852 ± 0.17; N 0.169 ± 0.13; S -0.39 ± 0.091
V23: C 0.287 ± 0.1; A 0.488 ± 0.11; H 0.455 ± 0.13; G 0.355 ± 0.084; F -0.191 ± 0.13; D -0.127 ± 0.12; S 0.317 ± 0.093; M 0.064 ± 0.11; I -0.218 ± 0.12; K 0.547 ± 0.13; Y -0.062 ± 0.14; E 0.096 ± 0.17; T 0.274 ± 0.12; Q 0.123 ± 0.16; N 0.313 ± 0.2; R 0.316 ± 0.095; L 0.128 ± 0.092
L18: P -0.542 ± 0.12; R -0.652 ± 0.09; Y -0.305 ± 0.16; E -1.07 ± 0.2; K -0.515 ± 0.11; D -0.625 ± 0.2; Q -1.08 ± 0.18; M -0.405 ± 0.12; H -1.12 ± 0.28; F -0.001 ± 0.15; S -0.455 ± 0.1; I -0.295 ± 0.21; T -0.824 ± 0.14
P29: G -0.119 ± 0.092; R 0.216 ± 0.085; D -0.387 ± 0.17; S 0.359 ± 0.092; Y 0.256 ± 0.14; Q 0.028 ± 0.13; H 0.262 ± 0.16; W 0.519 ± 0.11; C 0.181 ± 0.12; V 0.401 ± 0.095; N -0.106 ± 0.2; L 0.533 ± 0.085; K 0.44 ± 0.12; I 0.506 ± 0.17; A 0.466 ± 0.11; M 0.282 ± 0.15; F 0.413 ± 0.14; T 0.177 ± 0.12; E -0.296 ± 0.13
L37: A -0.026 ± 0.093; H -0.399 ± 0.25; G -0.107 ± 0.089; E -0.344 ± 0.11; C -0.244 ± 0.19; D -0.375 ± 0.15; F 0.105 ± 0.15
G28: R 0.122 ± 0.083; Y 0.133 ± 0.15; C -0.155 ± 0.12; M 0.074 ± 0.11; S 0.003 ± 0.085; E -0.38 ± 0.11; W 0.199 ± 0.11; L -0.142 ± 0.096; A -0.284 ± 0.12; K 0.362 ± 0.11; I 0.402 ± 0.12; H -0.147 ± 0.22; F 0.069 ± 0.19; V 0.273 ± 0.088; P -0.015 ± 0.13; Q -0.092 ± 0.11
P26: I -1.18 ± 0.24; T 0.369 ± 0.12; L -0.326 ± 0.095; Q 0.144 ± 0.12; E -0.138 ± 0.11; H 0.017 ± 0.17; S 0.193 ± 0.1; G 0.278 ± 0.087; M 0.074 ± 0.11; K 0.441 ± 0.12; C -0.157 ± 0.13; N 0.063 ± 0.28; V -0.628 ± 0.098; F -0.557 ± 0.2; Y -0.626 ± 0.23; D -0.327 ± 0.14; W -0.525 ± 0.11
L24: F -0.277 ± 0.15; T -0.455 ± 0.13; D -1 ± 0.17; G -0.461 ± 0.093; E -0.751 ± 0.15; C -0.013 ± 0.13; N -0.715 ± 0.21; W 0.244 ± 0.11; V -0.193 ± 0.087; P -0.938 ± 0.29; H -0.139 ± 0.15; A -0.329 ± 0.099; Q -0.569 ± 0.21; M -0.292 ± 0.16; I 0.137 ± 0.23; S -0.391 ± 0.11; R 0.013 ± 0.079; K -0.294 ± 0.14
C31: A 0.106 ± 0.081; F 0.007 ± 0.13; E -0.206 ± 0.1; S 0.168 ± 0.092; K 0.334 ± 0.12; I 0.167 ± 0.13; R 0.203 ± 0.08; D -0.136 ± 0.14; Q 0.072 ± 0.12; G 0.027 ± 0.072; L 0 ± 0.098; T -0.034 ± 0.12; N 0.185 ± 0.14; P 0.053 ± 0.13; V 0.145 ± 0.079; W 0.19 ± 0.091; Y -0.13 ± 0.12; H 0.308 ± 0.15; M -0.087 ± 0.12
L21: R -1.05 ± 0.1; D -1.23 ± 0.28; W -0.594 ± 0.12; G -0.957 ± 0.1; A -0.547 ± 0.11; H -0.335 ± 0.47; K -0.739 ± 0.2; S -0.915 ± 0.12; V -0.669 ± 0.1; C -0.503 ± 0.14; M -0.358 ± 0.15; N -1.17 ± 0.3; F -0.398 ± 0.16; I -0.144 ± 0.17; Q -0.495 ± 0.26; T -0.832 ± 0.17; E -0.931 ± 0.18; P -0.978 ± 0.22
